Assay results taken from paper PMC9234269.

Molecular target: Aβ1–42 fibrils (sonicated, immobilized) (human) (UniProt P05067)
Experiment: ELISA; sonicated Aβ1–42 fibrils coated on a high binding plate (50 μl of 2.5 μg/ml, carbonate buffer pH 9.6, overnight 8°C); blocked with 2% BSA in PBS pH 7.4; chaperones in 2% BSA up to 5,000 nM, 2 h at room temperature; detected with polyclonal anti-6×His; bound amount estimated from standard curves of chaperone deposited directly (0–100 nM)

Substance | stoichiometry N (Aβ1–42 monomers per chaperone molecule)
Drosophila HSP10 (natural protein) | 70
GroES (from UniProt P0A6F9 1-97) (natural protein) | 1400
Human HSP10 (from UniProt P61604 3-102) (natural protein) | 800
